{"source": "paper PMC6435036", "about": "(Molecular pharmaceutics, 2017)", "origin": "cited, not measured here", "settings": "in humans", "data": [{"substance": "ApoA-I: endogenous apolipoprotein A-I, main protein of HDL", "values": [{"measurement": "half-life of endogenous ApoA-I protein", "result": 79.2, "unit": "h"}]}]}
